As a reminder, the IC50 is the point on the concentration scale where inhibition reaches its midpoint. Low readings indicate greater potency in that assay, high ones weaker potency in that assay. Broadly, the EC50 is the midpoint of the concentration-response curve. As a reminder, the Kd is the concentration at which binding is half-saturated. Broadly, the koff is a measure of how fast the partners let go of each other. As usually defined, the kon is a measure of how fast the partners come together.

The target in experiment [1] is T1, full-length human LAG-3 on CHO-S cells (CHO-S-LAG-3) (human, UniProt P18627 23-525).
T1 construct: whole, on cells
T1 sequence (looked up): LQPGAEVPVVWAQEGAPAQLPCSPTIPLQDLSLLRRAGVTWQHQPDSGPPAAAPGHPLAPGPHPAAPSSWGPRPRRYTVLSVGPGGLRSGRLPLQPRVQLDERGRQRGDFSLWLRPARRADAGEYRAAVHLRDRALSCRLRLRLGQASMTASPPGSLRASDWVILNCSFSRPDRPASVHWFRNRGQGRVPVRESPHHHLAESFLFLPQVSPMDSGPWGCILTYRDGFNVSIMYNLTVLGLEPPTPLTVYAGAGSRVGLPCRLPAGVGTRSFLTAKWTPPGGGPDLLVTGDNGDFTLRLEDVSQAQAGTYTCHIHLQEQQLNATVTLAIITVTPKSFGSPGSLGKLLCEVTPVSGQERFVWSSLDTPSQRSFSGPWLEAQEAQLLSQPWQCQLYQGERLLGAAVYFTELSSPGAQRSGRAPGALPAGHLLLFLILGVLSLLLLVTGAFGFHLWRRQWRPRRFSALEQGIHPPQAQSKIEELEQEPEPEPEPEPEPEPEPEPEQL
Kind of experiment: flow cytometry, blocking of Biotin-FGL1-hFc (2 ug/ml) binding to CHO-S-LAG-3 cells. (A flow cytometer gives signals particle by particle.)

The target in experiment [2] is T2, LAG-3 on the cell surface of SEA-activated human PBMC (activated T cells) (human, UniProt P18627 23-525).
T2 sequence (looked up): T1 sequence (looked up)
Briefly: cell-based or functional assay.

Experiment [3] concerns the target T3, LAG-3-ECD-His (LAG-3 extracellular segment with His tag, purchased from Sino Biological Inc.) (UniProt P18627 23-450).
T3 construct: extracellular domain; not shown: His tag
T3 sequence (looked up): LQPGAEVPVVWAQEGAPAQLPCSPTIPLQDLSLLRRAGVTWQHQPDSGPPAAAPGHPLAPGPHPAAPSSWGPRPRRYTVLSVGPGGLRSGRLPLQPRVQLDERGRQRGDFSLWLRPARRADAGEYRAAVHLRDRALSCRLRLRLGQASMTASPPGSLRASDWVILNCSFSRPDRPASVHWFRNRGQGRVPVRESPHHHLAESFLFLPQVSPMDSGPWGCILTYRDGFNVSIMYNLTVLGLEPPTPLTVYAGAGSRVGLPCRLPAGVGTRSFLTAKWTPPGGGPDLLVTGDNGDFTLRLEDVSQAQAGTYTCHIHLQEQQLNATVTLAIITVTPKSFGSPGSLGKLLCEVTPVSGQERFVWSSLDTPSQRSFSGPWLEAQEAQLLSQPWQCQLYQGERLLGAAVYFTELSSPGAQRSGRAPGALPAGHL
Kind of experiment: ELISA, plate coated with LAG-3-ECD-His (10 ng/well), anti-human IgG (Fc) detection. A general note: An ELISA detects its analyte on a solid surface through an enzyme-linked reagent.

The target of experiment [4] is T4, recombinant LAG-3 (purchased from SinoBiological, Cat. No.: 16498-H08H) (human, UniProt P18627 23-450).
T4 construct: also called human LAG-3
T4 sequence (looked up): T3 sequence (looked up)
Kind of experiment: SPR (Biacore 8K), antibody captured on Protein A chip, recombinant LAG-3 as analyte. For orientation: Surface plasmon resonance follows binding to a sensor surface in real time, without labels.

For experiment [5], the target named is T2, LAG-3 on the cell surface of …. Briefly: flow cytometry, biotinylated antibody on SEA-activated human PBMC, PE-Streptavidin detection.

B1: 5E7-Hu-IgG4 (antibody, V domains shown)
VH: EVQLVESGGGLVKPGGSLRLSCAASGFTFSDDYMAWFRQAPGKRLEWVASISHGGDYIYYADNLKGRFTISRDNAKNSLYLQMNSLRAEDTAVYFCSRDRRSIDYWGQGTLVTVSS
VL: DIQMTQSPSSLSASVGDRVTITCRASQDISNYLSWYQQKPGKTIKLLIYYTSRLHSGVPSRFSGSGSGTDYTFTISSLQPEDIATYFCQQGKTLPYTFGQGTKVEIKR
modifications: Biotinylated with NHS-biotin only for the flow cytometry of Example 7 (positions not defined).
notes: also called humanized antibody No. 5E7; 5E7-Hu-IgG4-HC + 5E7-Hu-LC
On to B1, for which the IC50 in experiment [1] was determined as 0.0977 µg/mL. In experiment [2], the “EC50 of enhancing the secretion of IL-2 by SEA-stimulated PBMC (Fig. 3A)” value came to 0.0781 µg/mL and the “EC50 of enhancing the secretion of IL-2 by SEA-stimulated PBMC (Fig. 3B)” value was 0.00307 µg/mL. The molecule also displayed an EC50 in experiment [3] of 0.00908 µg/mL. For the same molecule, in experiment [4], the Kd turned out to be 4.17 pM, the koff amounted to 1.84e-05 s⁻¹ and the kon is 4.41e+06 M⁻¹ s⁻¹. This molecule also came in with an EC50 in experiment [5] of 0.0531 µg/mL.

Source of the values: patent EP3932948A1 (Sunshine Guojian Pharmaceutical (Shanghai) Co., Ltd., dated 2022).
